From patent publication US20260015399A1 (Boehringer Ingelheim, published 2026) come the findings set out here.

*1 amine or outer side, *2 acyl side, *3 side chain or, on linkers, in order; H or OH if unused. Side-chain parts run from the residue outwards. The star is where a group is joined. C18 diacid = O=C(O)CCCCCCCCCCCCCCCCC(=O)*; γGlu = O=C(O)[C@H](CCC(=O)[*:2])N[*:1]; Isovaleryl = CC(C)CC(=O)*; Ahx = NCCCCCC(=O)O

Broadly, the Ki is a measure of affinity in units of concentration, obtained from inhibition or displacement. Low values mean a stronger hold on the target, high ones a looser hold on the target.

The chains are these.
T1: human NPY2 receptor (human, UniProt P49146 1-381)
T1 construct: whole, on cells; also called hNPY2-R; hNPY2R
T1 sequence (looked up): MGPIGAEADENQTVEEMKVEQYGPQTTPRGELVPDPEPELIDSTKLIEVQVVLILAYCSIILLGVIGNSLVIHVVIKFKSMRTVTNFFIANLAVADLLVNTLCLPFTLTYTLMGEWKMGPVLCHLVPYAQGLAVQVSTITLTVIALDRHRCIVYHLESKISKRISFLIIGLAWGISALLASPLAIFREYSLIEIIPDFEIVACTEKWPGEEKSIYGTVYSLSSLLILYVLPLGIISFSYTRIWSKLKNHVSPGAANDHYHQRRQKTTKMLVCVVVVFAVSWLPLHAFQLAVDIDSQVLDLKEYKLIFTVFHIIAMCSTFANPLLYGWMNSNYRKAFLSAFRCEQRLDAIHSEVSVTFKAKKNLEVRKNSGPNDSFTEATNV

B1: Compound 113 (peptide)
peptide: Isovaleryl-APEK([Ahx-γGlu-C18 diacid])PEEDATPEEIQRYYVSLRHYQNWLTRQRY-NH2
SMILES: CC[C@H](C)[C@H](NC(=O)[C@H](CCC(=O)O)NC(=O)[C@H](CCC(=O)O)NC(=O)[C@@H]1CCCN1C(=O)[C@@H](NC(=O)[C@H](C)NC(=O)[C@H](CC(=O)O)NC(=O)[C@H](CCC(=O)O)NC(=O)[C@H](CCC(=O)O)NC(=O)[C@@H]1CCCN1C(=O)[C@H](CCCCNC(=O)CCCCCNC(=O)CC[C@H](NC(=O)CCCCCCCCCCCCCCCCC(=O)O)C(=O)O)NC(=O)[C@H](CCC(=O)O)NC(=O)[C@@H]1CCCN1C(=O)[C@H](C)NC(=O)CC(C)C)[C@@H](C)O)C(=O)N[C@@H](CCC(N)=O)C(=O)N[C@@H](CCCNC(=N)N)C(=O)N[C@@H](Cc1ccc(O)cc1)C(=O)N[C@@H](Cc1ccc(O)cc1)C(=O)N[C@H](C(=O)N[C@@H](CO)C(=O)N[C@@H](CC(C)C)C(=O)N[C@@H](CCCNC(=N)N)C(=O)N[C@@H](Cc1c[nH]cn1)C(=O)N[C@@H](Cc1ccc(O)cc1)C(=O)N[C@@H](CCC(N)=O)C(=O)N[C@@H](CC(N)=O)C(=O)N[C@@H](Cc1c[nH]c2ccccc12)C(=O)N[C@@H](CC(C)C)C(=O)N[C@H](C(=O)N[C@@H](CCCNC(=N)N)C(=O)N[C@@H](CCC(N)=O)C(=O)N[C@@H](CCCNC(=N)N)C(=O)N[C@@H](Cc1ccc(O)cc1)C(N)=O)[C@@H](C)O)C(C)C
B2: Compound 119 (peptide)
peptide: Isovaleryl-APEK([Ahx-γGlu-C18 diacid])PEEDATPEESQRYYVSLRHYYNWLTRQRY-NH2
SMILES: CC(C)CC(=O)N[C@@H](C)C(=O)N1CCC[C@H]1C(=O)N[C@@H](CCC(=O)O)C(=O)N[C@@H](CCCCNC(=O)CCCCCNC(=O)CC[C@H](NC(=O)CCCCCCCCCCCCCCCCC(=O)O)C(=O)O)C(=O)N1CCC[C@H]1C(=O)N[C@@H](CCC(=O)O)C(=O)N[C@@H](CCC(=O)O)C(=O)N[C@@H](CC(=O)O)C(=O)N[C@@H](C)C(=O)N[C@H](C(=O)N1CCC[C@H]1C(=O)N[C@@H](CCC(=O)O)C(=O)N[C@@H](CCC(=O)O)C(=O)N[C@@H](CO)C(=O)N[C@@H](CCC(N)=O)C(=O)N[C@@H](CCCNC(=N)N)C(=O)N[C@@H](Cc1ccc(O)cc1)C(=O)N[C@@H](Cc1ccc(O)cc1)C(=O)N[C@H](C(=O)N[C@@H](CO)C(=O)N[C@@H](CC(C)C)C(=O)N[C@@H](CCCNC(=N)N)C(=O)N[C@@H](Cc1c[nH]cn1)C(=O)N[C@@H](Cc1ccc(O)cc1)C(=O)N[C@@H](Cc1ccc(O)cc1)C(=O)N[C@@H](CC(N)=O)C(=O)N[C@@H](Cc1c[nH]c2ccccc12)C(=O)N[C@@H](CC(C)C)C(=O)N[C@H](C(=O)N[C@@H](CCCNC(=N)N)C(=O)N[C@@H](CCC(N)=O)C(=O)N[C@@H](CCCNC(=N)N)C(=O)N[C@@H](Cc1ccc(O)cc1)C(N)=O)[C@@H](C)O)C(C)C)[C@@H](C)O
B3: Compound 124 (peptide)
peptide: Isovaleryl-APEK([Ahx-γGlu-C18 diacid])PEAAAEPEEIQRYYVSLRHYYNWLTRQRY-NH2
SMILES: CC[C@H](C)[C@H](NC(=O)[C@H](CCC(=O)O)NC(=O)[C@H](CCC(=O)O)NC(=O)[C@@H]1CCCN1C(=O)[C@H](CCC(=O)O)NC(=O)[C@H](C)NC(=O)[C@H](C)NC(=O)[C@H](C)NC(=O)[C@H](CCC(=O)O)NC(=O)[C@@H]1CCCN1C(=O)[C@H](CCCCNC(=O)CCCCCNC(=O)CC[C@H](NC(=O)CCCCCCCCCCCCCCCCC(=O)O)C(=O)O)NC(=O)[C@H](CCC(=O)O)NC(=O)[C@@H]1CCCN1C(=O)[C@H](C)NC(=O)CC(C)C)C(=O)N[C@@H](CCC(N)=O)C(=O)N[C@@H](CCCNC(=N)N)C(=O)N[C@@H](Cc1ccc(O)cc1)C(=O)N[C@@H](Cc1ccc(O)cc1)C(=O)N[C@H](C(=O)N[C@@H](CO)C(=O)N[C@@H](CC(C)C)C(=O)N[C@@H](CCCNC(=N)N)C(=O)N[C@@H](Cc1c[nH]cn1)C(=O)N[C@@H](Cc1ccc(O)cc1)C(=O)N[C@@H](Cc1ccc(O)cc1)C(=O)N[C@@H](CC(N)=O)C(=O)N[C@@H](Cc1c[nH]c2ccccc12)C(=O)N[C@@H](CC(C)C)C(=O)N[C@H](C(=O)N[C@@H](CCCNC(=N)N)C(=O)N[C@@H](CCC(N)=O)C(=O)N[C@@H](CCCNC(=N)N)C(=O)N[C@@H](Cc1ccc(O)cc1)C(N)=O)[C@@H](C)O)C(C)C
B4: Compound 121 (peptide)
peptide: Isovaleryl-APEK([Ahx-γGlu-C18 diacid])PEADASPEELQRYYVQLRHYYNWLTRQRY-NH2
SMILES: CC(C)CC(=O)N[C@@H](C)C(=O)N1CCC[C@H]1C(=O)N[C@@H](CCC(=O)O)C(=O)N[C@@H](CCCCNC(=O)CCCCCNC(=O)CC[C@H](NC(=O)CCCCCCCCCCCCCCCCC(=O)O)C(=O)O)C(=O)N1CCC[C@H]1C(=O)N[C@@H](CCC(=O)O)C(=O)N[C@@H](C)C(=O)N[C@@H](CC(=O)O)C(=O)N[C@@H](C)C(=O)N[C@@H](CO)C(=O)N1CCC[C@H]1C(=O)N[C@@H](CCC(=O)O)C(=O)N[C@@H](CCC(=O)O)C(=O)N[C@@H](CC(C)C)C(=O)N[C@@H](CCC(N)=O)C(=O)N[C@@H](CCCNC(=N)N)C(=O)N[C@@H](Cc1ccc(O)cc1)C(=O)N[C@@H](Cc1ccc(O)cc1)C(=O)N[C@H](C(=O)N[C@@H](CCC(N)=O)C(=O)N[C@@H](CC(C)C)C(=O)N[C@@H](CCCNC(=N)N)C(=O)N[C@@H](Cc1c[nH]cn1)C(=O)N[C@@H](Cc1ccc(O)cc1)C(=O)N[C@@H](Cc1ccc(O)cc1)C(=O)N[C@@H](CC(N)=O)C(=O)N[C@@H](Cc1c[nH]c2ccccc12)C(=O)N[C@@H](CC(C)C)C(=O)N[C@H](C(=O)N[C@@H](CCCNC(=N)N)C(=O)N[C@@H](CCC(N)=O)C(=O)N[C@@H](CCCNC(=N)N)C(=O)N[C@@H](Cc1ccc(O)cc1)C(N)=O)[C@@H](C)O)C(C)C
B5: Compound 123 (peptide)
peptide: Isovaleryl-APEK([Ahx-γGlu-C18 diacid])PEEDAAPEELQKYYVSLRHYYNWLTRQRY-NH2
SMILES: CC(C)CC(=O)N[C@@H](C)C(=O)N1CCC[C@H]1C(=O)N[C@@H](CCC(=O)O)C(=O)N[C@@H](CCCCNC(=O)CCCCCNC(=O)CC[C@H](NC(=O)CCCCCCCCCCCCCCCCC(=O)O)C(=O)O)C(=O)N1CCC[C@H]1C(=O)N[C@@H](CCC(=O)O)C(=O)N[C@@H](CCC(=O)O)C(=O)N[C@@H](CC(=O)O)C(=O)N[C@@H](C)C(=O)N[C@@H](C)C(=O)N1CCC[C@H]1C(=O)N[C@@H](CCC(=O)O)C(=O)N[C@@H](CCC(=O)O)C(=O)N[C@@H](CC(C)C)C(=O)N[C@@H](CCC(N)=O)C(=O)N[C@@H](CCCCN)C(=O)N[C@@H](Cc1ccc(O)cc1)C(=O)N[C@@H](Cc1ccc(O)cc1)C(=O)N[C@H](C(=O)N[C@@H](CO)C(=O)N[C@@H](CC(C)C)C(=O)N[C@@H](CCCNC(=N)N)C(=O)N[C@@H](Cc1c[nH]cn1)C(=O)N[C@@H](Cc1ccc(O)cc1)C(=O)N[C@@H](Cc1ccc(O)cc1)C(=O)N[C@@H](CC(N)=O)C(=O)N[C@@H](Cc1c[nH]c2ccccc12)C(=O)N[C@@H](CC(C)C)C(=O)N[C@H](C(=O)N[C@@H](CCCNC(=N)N)C(=O)N[C@@H](CCC(N)=O)C(=O)N[C@@H](CCCNC(=N)N)C(=O)N[C@@H](Cc1ccc(O)cc1)C(N)=O)[C@@H](C)O)C(C)C
B6: Compound 120 (peptide)
peptide: Isovaleryl-APAK([Ahx-γGlu-C18 diacid])PEEAATPEEIQRYYVALRHYYNWLTRQRY-NH2
SMILES: CC[C@H](C)[C@H](NC(=O)[C@H](CCC(=O)O)NC(=O)[C@H](CCC(=O)O)NC(=O)[C@@H]1CCCN1C(=O)[C@@H](NC(=O)[C@H](C)NC(=O)[C@H](C)NC(=O)[C@H](CCC(=O)O)NC(=O)[C@H](CCC(=O)O)NC(=O)[C@@H]1CCCN1C(=O)[C@H](CCCCNC(=O)CCCCCNC(=O)CC[C@H](NC(=O)CCCCCCCCCCCCCCCCC(=O)O)C(=O)O)NC(=O)[C@H](C)NC(=O)[C@@H]1CCCN1C(=O)[C@H](C)NC(=O)CC(C)C)[C@@H](C)O)C(=O)N[C@@H](CCC(N)=O)C(=O)N[C@@H](CCCNC(=N)N)C(=O)N[C@@H](Cc1ccc(O)cc1)C(=O)N[C@@H](Cc1ccc(O)cc1)C(=O)N[C@H](C(=O)N[C@@H](C)C(=O)N[C@@H](CC(C)C)C(=O)N[C@@H](CCCNC(=N)N)C(=O)N[C@@H](Cc1c[nH]cn1)C(=O)N[C@@H](Cc1ccc(O)cc1)C(=O)N[C@@H](Cc1ccc(O)cc1)C(=O)N[C@@H](CC(N)=O)C(=O)N[C@@H](Cc1c[nH]c2ccccc12)C(=O)N[C@@H](CC(C)C)C(=O)N[C@H](C(=O)N[C@@H](CCCNC(=N)N)C(=O)N[C@@H](CCC(N)=O)C(=O)N[C@@H](CCCNC(=N)N)C(=O)N[C@@H](Cc1ccc(O)cc1)C(N)=O)[C@@H](C)O)C(C)C

The test has as its target T1, human NPY2 receptor. In words: RLB: displacement of 125I-PYY(1-36) from hNPY2R membranes. For orientation: Loss of bound radioactivity is the signal in a displacement assay; it reports binding, not function.
For B1, the Ki was determined as 3.53 nM. As for B2, the figure is 5.73 nM.

B3 gave a Ki of 3.07 nM. Regarding B4, the Ki turned out to be 1.45 nM. To B5 belongs 3.65 nM; to B6, 1.49 nM.
